Laboratory results taken from US9562073B2, “Matriptase and u-plasminogen activator substrates and other cleavable moieties and methods of use thereof” (CytomX Therapeutics, Inc., priority 2014, dated 2017).

Biological target: T1, Human matriptase-1 (Homo sapiens, UniProt Q9Y5Y6)
T1 construct: purchased Research & Diagnostics Systems, Inc
T1 sequence (Q9Y5Y6 1-855): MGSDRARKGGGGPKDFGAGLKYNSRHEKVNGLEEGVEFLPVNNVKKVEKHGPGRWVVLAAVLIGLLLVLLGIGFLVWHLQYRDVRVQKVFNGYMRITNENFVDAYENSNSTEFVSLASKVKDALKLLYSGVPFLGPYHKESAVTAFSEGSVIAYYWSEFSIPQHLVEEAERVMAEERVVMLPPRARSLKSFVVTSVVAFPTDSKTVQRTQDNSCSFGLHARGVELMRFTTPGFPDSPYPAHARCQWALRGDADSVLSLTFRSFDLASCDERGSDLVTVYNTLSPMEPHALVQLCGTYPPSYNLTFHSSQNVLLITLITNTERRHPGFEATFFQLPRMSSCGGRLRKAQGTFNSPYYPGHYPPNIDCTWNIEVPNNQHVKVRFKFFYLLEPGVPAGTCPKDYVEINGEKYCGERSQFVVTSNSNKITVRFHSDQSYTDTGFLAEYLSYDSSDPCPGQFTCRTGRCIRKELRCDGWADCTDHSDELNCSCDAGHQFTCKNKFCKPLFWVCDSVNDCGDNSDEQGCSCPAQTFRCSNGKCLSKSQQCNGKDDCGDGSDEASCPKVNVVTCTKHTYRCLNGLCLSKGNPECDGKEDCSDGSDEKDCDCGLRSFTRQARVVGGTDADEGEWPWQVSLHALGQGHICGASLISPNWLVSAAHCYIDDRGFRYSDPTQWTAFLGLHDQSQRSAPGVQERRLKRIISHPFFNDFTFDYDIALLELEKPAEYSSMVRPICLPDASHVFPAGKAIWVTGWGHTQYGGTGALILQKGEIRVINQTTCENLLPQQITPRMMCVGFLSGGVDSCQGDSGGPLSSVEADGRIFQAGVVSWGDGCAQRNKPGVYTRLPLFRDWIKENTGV
Experiment: Substrate cleavage by matriptase-1 on cell-displayed platform scaffold (eCLiPS3.0), flow cytometry
Format: biochemical
Conditions: substrate displayed in platform scaffold; TBST
Procedure: Reagents and Strains: Streptavidin-conjugated phycoerythrin (SA-PE) (Invitrogen, Life Technologies) was used without modifications. Human matriptase-1 (Research & Diagnostics Systems, Inc.) was used without modifications. Human plasmin (Haematologic Technologies Inc.) was used without modifications. Human tPA (Molecular Innovations) was used without modifications. YPet fused to the SH3 domain of Mona (monocytic adaptor) was used without modifications. TBST, 50 mM Tris-HCl, 150 mM NaCl, 0.05% Tween20, pH 7.4, was used. […]
Substrate Cleavage and Scaffold Stability Analysis: For screening and clone analysis, overnight cultures were subcultured by dilution into fresh medium (1:50) and grown for 1.5-2 hours. […] After incubation on ice (30 min), cells were washed with PBS and analyzed using a FACSAria™ cell sorter.
For protease cleavage assays, cultures were induced for 1 hour. […] Background hydrolysis of the regions flanking the substrate site (using platform eCLiPS3.0-NSUB_SP described in PCT patent application PCT/US13/54378, filed Aug. 9, 2013 and published as WO 2014/026136 on Feb. 13, 2014), was measured under each reaction condition to ensure that hydrolysis occurred in the designated substrate region. […]
Specifically, for each sample, conversion was determined by flow cytometry analyses using the relationship […]
[formula] allowing substrate conversion to be expressed as […]

cleavage by matriptase-1: cleavage
Sequence: VAGRSMRP (Cleavable moiety)
